T1: ovalbumin (UniProt P01012 2-386)
T1 sequence (looked up): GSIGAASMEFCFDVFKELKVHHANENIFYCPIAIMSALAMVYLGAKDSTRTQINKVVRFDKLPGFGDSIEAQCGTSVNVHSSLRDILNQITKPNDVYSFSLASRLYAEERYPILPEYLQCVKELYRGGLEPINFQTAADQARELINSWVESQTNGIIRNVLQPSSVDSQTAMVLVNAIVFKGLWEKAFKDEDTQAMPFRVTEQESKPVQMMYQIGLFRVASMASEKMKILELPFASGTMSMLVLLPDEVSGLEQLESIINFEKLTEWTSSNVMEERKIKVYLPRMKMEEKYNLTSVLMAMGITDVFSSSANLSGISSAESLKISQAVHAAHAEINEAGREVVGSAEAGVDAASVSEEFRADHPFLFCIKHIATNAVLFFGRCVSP

T2: central peptide Aβ16-27
T2 construct: Bought from the Peptide Speciality Laboratory
T2 peptide: KLVFFAEDVGSN


Columns and labels:
ovalbumin = target: T1, ovalbumin; assay: capture ELISA: 1 µM Lcn2 protein captured via Strep-tag II on coated StrepMAB-Immo, biotinylated target titrated, ExtrAvidin/AP + pNPP
Description: (§1) FIG. 5 depicts the binding activity of the Lcn2 muteins H1-G1, S1-A4, and US7 in capture ELISAs with different biotinylated Aβ targets. StrepMAB-Immo at 10 μg/ml was immobilized on microtitre plates and employed for capturing of 1 JAM Lcn2 muteins via the Strep-tag H. In figures A to C the binding of the Lcn2 muteins S1-A4 and US7 to (A) biotinylated Aβ40, (B) biotinylated Trx-Aβ28, and (C) biotinylated MBP-Aβ40 are shown. Binding was detected by incubation with ExtrAvidin/AP and a subsequent chromogenic reaction with pNPP. Ovalbumin (Ova), thioredoxin (Trx), and maltose binding protein (MBP) were used as negative controls. Additionally, binding of wild-type (wt) lipocalin was tested. The data were fitted to a monovalent binding model.
(§2) For selective capturing of the Lcn2 muteins carrying the C-terminal Strep-tag II (Schmidt and Skerra (2007) Nat. Protoc. 2, 1528-1535), a 96-well MaxiSorp polystyrene microtitre plate (Nunc, Langenselbold, Germany) was coated with 10 μg/mL StrepMAB-Immo (IBA, Göttingen, Germany) in PBS over night at 4° C. and blocked with 3% (w/v) BSA in PBS/T at room temperature for 1 h. After 3 washing steps with PBS/T, 50 μL of a 1 μM solution of the purified Lcn2 muteins from Example 7 were applied to all wells for 1 h. After washing, 50 μL of a dilution series of the biotinylated targets Aβ40, MBP-Aβ40 or Trx-Aβ28 from Example 2 were added and incubated for 1 h whereby the biotinylated forms of Ova, MBP and Trx from Example 2 served as negative control proteins. The wells were washed again and bound conjugate was detected with 50 μL of ExtrAvidin/AP conjugate (Sigma-Aldrich, Steinheim, Germany) diluted 1:5000 in PBS/T for 1 h, followed by signal development in the presence of 100 μL 0.5 mg/mL p-nitrophenyl phosphate (AppliChem, Darmstadt, Germany) in 100 mM Tris/HCl, pH 8.8, 100 mM NaCl, 5 mM MgCl₂.

Trx-Aβ28 fusion protein [1] = target: T3, Trx-Aβ28 fusion protein (Escherichia coli (strain K12), UniProt P0AA25 1-76 = thioredoxin, Biotin-labelled through an NHS ester (2:1) in the capture and competitive ELISAs; unlabeled in the direct ELISA and as competitor.); assay: as above
T3 construct: the entry may be a nucleic acid; also called TrxAbeta28H6
Description: as §1, §2

[2] = target: T4, biotinylated Aβ40 peptide (human, C-terminal biotin group attached via a lysine spacer); assay: as above
T4 construct: Synthetic peptide (Peptide Speciality Laboratory) with a C-terminal biotin on a lysine spacer; used in the capture ELISAs
T4 sequence (peptide, as listed by the source): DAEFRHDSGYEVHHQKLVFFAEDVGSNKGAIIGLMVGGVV
Description: as §1, §2

[3] = target: T5, recombinant human fibronectin fragment FN7B8 (human, UniProt P02751 1173-1448); assay: ELISA: FN7B8 coated, Lcn2 protein titrated, detected via Strep-tag II with Streptavidin-alkaline phosphatase + pNPP
T5 construct: no separate number is printed for the protein, so the entry may be a nucleic acid
T5 sequence (P02751 other isoform, or with tags, fused parts or gaps limits assumed): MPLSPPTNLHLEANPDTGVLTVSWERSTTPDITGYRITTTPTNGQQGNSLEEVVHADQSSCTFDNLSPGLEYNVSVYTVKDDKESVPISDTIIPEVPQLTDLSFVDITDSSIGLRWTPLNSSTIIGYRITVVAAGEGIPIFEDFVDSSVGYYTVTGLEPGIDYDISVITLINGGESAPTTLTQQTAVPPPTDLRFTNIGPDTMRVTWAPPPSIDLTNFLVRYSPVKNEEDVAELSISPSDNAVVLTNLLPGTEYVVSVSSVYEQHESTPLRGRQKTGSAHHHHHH
Description: FIG. 12 depicts binding activity in the ELISA. A microliter plate was coated with the purified proteins FN7B8 and FN789 and incubated with a dilution series of the selected Lcn2 muteins, followed by detection with Streptavidin-alkaline-phosphatase conjugate and pNPP substrate.
To adsorb FN7B8 or FN789 onto the surface of a 96-well Nunc Maxisorp plate (Thermo Fisher Scientific, Langenselbold, Germany) 50 μl of a 100 μg/ml protein solution in TBS/E was added per well and incubated at room temperature for 2 h. Additionally, to include control proteins, blank wells were exposed to 120 μl 2% (w/v) BSA (AppliChem, Darmstadt, Germany) in TBS/ET. […] The wells were washed again and bound Lcn2 muteins were detected with 50 μL of Streptavidin-alkaline phosphatase conjugate (GE Healthcare, Munich, Germany) diluted 1:1500 in TBS/T for 1 h, followed by signal development in the presence of 50 μl 0.5 mg/ml p-nitrophenyl phosphate in 100 mM Tris/HCl, 100 mM NaCl, 5 mM MgCl₂, pH 8.8. The time course of absorption AA/At at 405 nm was measured in a SpectraMax 250 reader (Molecular Devices, Sunnyvale, Calif.) and the data were fitted with KaleidaGraph software (Synergy software, Reading, Pa.) to the equation

[4] = target: T6, Aβ40 peptide, non-labeled (human); assay: SPOT membrane of overlapping Aβ40 peptides
T6 construct: Non-labeled synthetic peptide (W. M. Keck Laboratory); also called Abeta40; amyloid beta peptide
T6 sequence (peptide, as listed by the source): as the sequence (peptide, as listed by the source) above

MBP-Aβ40 fusion protein [5] = target: T7, MBP-Aβ40 fusion protein; assay: direct ELISA: MBP-Aβ40 coated, mutein titrated, detected via Strep-tag II
T7 construct: the entry may be a nucleic acid; Biotin-labelled in the capture ELISA, unlabeled in the direct ELISA and SPR; also called MBP-Abeta40
Description: (§3) The Aβ targets Trx-Aβ28 and MBP-Aβ40 as well as the control protein maltose binding protein (MBP) were immobilized at 2 μM in PBS over night. Bound Lcn2 muteins were detected via their Strep-tag II using Streptavidin/AP followed by a chromogenic reaction with pNPP. As a control, the binding of wild-type (wt) lipocalin was tested. The data were fitted to a monovalent binding model.
(§4) Alternatively, for a “direct” ELISA, 2 μM unlabeled Aβ40 target from Example 2 was adsorbed onto a 96-well MaxiSorp polystyrene microliter plate (Nunc, Langenselbold, Germany) and incubated with the purified Lcn2 mutein, which was detected via the Strep-tag II using a 1:1500 dilution of Streptavidin/AP conjugate (GE Healthcare UK Ltd, Buckinghamshire, UK). As a control, 2 μM MBP from Example 2 was adsorbed onto the ELISA plate. Absorption at 405 nm was measured in a SpectraMax 250 reader (Molecular Devices, Sunnyvale, USA).

central peptide Aβ16-27 = target: T2, central peptide Aβ16-27; assay: capture ELISA: mutein captured, Aβ16-27 titrated
Trx-Aβ28 fusion protein [6] = target: T3, Trx-Aβ28 fusion protein; assay: direct ELISA: Trx-Aβ28 coated, mutein titrated, detected via Strep-tag II
Description: as §3, §4

Trx-Aβ28 fusion protein [7] = target: T3, Trx-Aβ28 fusion protein; assay: capture ELISA: mutein captured, biotinylated Trx-Aβ28 titrated
Description: as §1, §2

Trx-Aβ28 fusion protein [8] = target: T3, Trx-Aβ28 fusion protein; assay: competitive ELISA: mutein captured, 40 nM biotinylated Trx-Aβ28 as tracer, unlabeled Trx-Aβ28 varied as competitor
Description: Alternatively, a “competitive” ELISA was performed in a similar manner as the “capture” ELISA described above. Again, after immobilizing StrepMAB-Immo and washing, 50 μL of a 1 μM solution of the purified Lcn2 mutein from Example 7 was applied to all wells for 1 h. After washing, the biotinylated target Trx-Aβ28 from Example 2 was applied at a fixed concentration of 5 nM (for S1-A4) or 40 nM (for US7) in the presence of varying concentrations of the free non-labeled Trx-Aβ28 target as competitor. Starting with a 100-fold excess, the competitor concentration was decreased by the factor 3 in each step. In this case, the data were fitted to the sigmoidal equation

MBP-Aβ40 fusion protein [9] = target: T7, MBP-Aβ40 fusion protein; assay: SPR (Biacore), MBP-Aβ40 amine-coupled (1455 RU), mutein as analyte
Description: (§5) FIG. 8 depicts the kinetic real time analysis of Lcn2 muteins S1-A4 (A) and US7 (B) measured on a Biacore instrument at a flow rate of 10 μl/min. The MBP-Aβ40 fusion protein was coupled via amine chemistry on a CMD 200I chip (ΔRU=1455) and each of the purified Lcn2 muteins was applied in a series at different concentrations. The measured signal is shown as a grey line whereas the curve fit is depicted as a black line in each case.
(§6) Real time analysis of Lcn2 muteins was performed on a Biacore X system (Biacore, Uppsala, Sweden) using PBS/T (PBS containing 0.005% (v/v) Tween 20) as running buffer. A 50 μg/mL solution of MBP-Aβ40 from Example 2 in 10 mM Na-acetate, pH 4.5 was immobilized onto a […] chip (Xantec, Düsseldorf, Germany) using standard amine coupling chemistry, resulting in a ligand density of 1455 resonance units (RU). […] The sensorgrams were corrected by subtraction of the corresponding signals measured for the control channel, which had been activated and blocked with ethanolamine. […] During this step the kₒₙ and koff rates were fitted globally, while the maximum response difference Rₘₐₓ was fitted locally for each curve.

MBP-Aβ40 fusion protein [10] = target: T7, MBP-Aβ40 fusion protein; assay: SPR (Biacore), MBP-Aβ40 amine-coupled; same experiment as the 1st table, row 20, column 3, printed with more digits
Description: as §5, §6

MBP-Aβ40 fusion protein [11] = target: T7, MBP-Aβ40 fusion protein; assay: SPR (Biacore X), MBP-Aβ40 amine-coupled, mutein as analyte
Description: as §6

[12] = target: T6, Aβ40 peptide, non-labeled; assay: SPOT membrane of overlapping Aβ40 peptides, 100 nM mutein
MBP-Aβ40 fusion protein [13] = target: T7, MBP-Aβ40 fusion protein; assay: capture ELISA: mutein captured, biotinylated MBP-Aβ40 titrated
Description: as §1
For selective capturing of the Lcn2 muteins carrying the C-terminal Strep-tag II (Schmidt and Skerra (2007) Nat. Protoc. 2, 1528-1535), a 96-well MaxiSorp polystyrene microtitre plate (Nunc, Langenselbold, Germany) was coated with 10 μg/mL StrepMAB-Immo (IBA, Göttingen, Germany) in PBS over night at 4° C. and blocked with 3% (w/v) BSA in PBS/T at room temperature for 1 h. After 3 washing steps with PBS/T, 50 μL of a 1 μM solution of the purified Lcn2 muteins from Example 7 were applied to all wells for 1 h. […]

[14] = target: T4, biotinylated Aβ40 peptide; assay: capture ELISA: mutein captured via Strep-tag II on StrepMAB-Immo, biotinylated Aβ40 titrated
Description: as §1, §2

Binder	binding result (ovalbumin)	binding result (Trx-Aβ28 fusion protein [1])	binding result [2]	binding result [3]	binding result [4]	Kd (MBP-Aβ40 fusion protein [5])	Kd (central peptide Aβ16-27)	Kd (Trx-Aβ28 fusion protein [6])	Kd (Trx-Aβ28 fusion protein [7])	Kd (Trx-Aβ28 fusion protein [8])	koff (MBP-Aβ40 fusion protein [9])	kon (MBP-Aβ40 fusion protein [9])	Kd (MBP-Aβ40 fusion protein [10])	Kd (MBP-Aβ40 fusion protein [11])	binding result [12]	Kd (MBP-Aβ40 fusion protein [13])	Kd [14]
recombinant wild-type human Lipocalin 2 (other, also called wt Lcn2; wild type Lcn2) QDSTSDLIPAPPLSKVPLQQNFQDNQFQGKWYVVGLAGNAILREDKDPQKMYATIYELKEDKSYNVTSVLFRKKKCDYWIRTFVPGSQPGEFTLGNIKSYPGLTSYLVRVVSTNYNQHAMVFFKKVSQNREYFKITLYGRTKELTSELKENFIRFSKSLGLPENHIVFPVPIDQCIDG	no binding (tested: 250 nM)	no binding	no binding	no binding (tested: 250 nM)	no binding (tested: 100 nM)	–	–	–	–	–	–	–	–	–	–	–	–
Lcn2 mutein US7 (designed binder) QDSTSDLIPAPPLSKVPLQQNFQDNQFHGKWYVVGVAGNKSLREDKDPWKMYATIYELKEDKSYNVTSVGFGTKKCHYKIRTFVPGSQPGEFTLGRIKSRPGRTSALVRVVSTNYNQHAMVFFKVVQQNRESFNITLYGRTKELTSELKENFIRFSKSLGLPENHIVFPVPIDQCIDG	no binding (tested: 250 nM)	–	–	–	–	49.7 nM	2.1 nM	9.6 nM	2.4 nM	76.9 nM	0.000252 s⁻¹	202000 M⁻¹ s⁻¹	1.25 nM	1.3 nM	binds	11.4 nM	6.8 nM
